In publication PMC8064498 one finds stoichiometry N data, which are given here for two substances.

The stoichiometry N is the number of molecules, sites or subunits per partner or assembly.

The target in experiment [1] is SARS-CoV-2 S ectodomain (residues 1-1214) with prefusion stabilizing 986P, 987P variants, C-terminal (SARS-CoV-2) (UniProt P0DTC2). Put plainly: SEC. On the technique in general: SEC sorts molecules by how far they enter the pores of the column.
In experiment [2] the target is SARS-CoV-2 prefusion-stabilized spike protein ectodomain (aa 16-1208), expressed in Drosophila S2 cells (SARS-CoV-2) (UniProt P0DTC2). As to the kind of experiment: SEC.

Substance “SARS-CoV-2 S ectodomain (residues 1-1214) with prefusion stabilizing 986P, 987P variants, C-terminal (from UniProt P0DTC2 14-1214) (domain or fragment)” displayed a stoichiometry N in experiment [1] of 3. For the substance “SARS-CoV-2 prefusion-stabilized spike protein ectodomain (aa 16-1208), expressed in Drosophila S2 cells (from UniProt P0DTC2 16-1208) (domain or fragment)”, the stoichiometry N in experiment [2] worked out at 2.
